Data reported in publication PMC10397247.

B1: P5bHq (peptide)
chain: DENQELEKKIEELKRKNWELKKEIQELEQ
B2: 4H2859-bH (peptide)
chain: DKIQELKKKIEELERKIWELKKENQELER
B3: 4H491-bA (peptide)
chain: DEIAQLEQKNAELKQKIAELKWENAQLEQ

Assays:
Experiment in all cases: two-hybrid library CCNG1;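 further: natural log of median RNA to DNA barcode read ratio; higher means stronger binding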
P7bHq = target: T1, P7bHq
T1 chain: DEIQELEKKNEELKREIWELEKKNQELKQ

P8bHq = target: T2, P8bHq
T2 chain: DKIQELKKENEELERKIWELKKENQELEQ

P6bHq = target: T3, P6bHq
T3 chain: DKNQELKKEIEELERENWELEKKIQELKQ

P9bHq = target: T4, P9bHq
T4 chain: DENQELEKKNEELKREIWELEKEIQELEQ

P5bHq = target: T5, P5bHq
T5 chain: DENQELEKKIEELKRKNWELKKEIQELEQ

4H3041-bH = target: T6, 4H3041-bH
T6 chain: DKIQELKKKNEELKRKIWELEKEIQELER

4H491-bA = target: T7, 4H491-bA
T7 chain: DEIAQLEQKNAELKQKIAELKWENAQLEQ

4H3297-bH = target: T8, 4H3297-bH
T8 chain: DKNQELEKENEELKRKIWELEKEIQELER

4H2859-bH = target: T9, 4H2859-bH
T9 chain: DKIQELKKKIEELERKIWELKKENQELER

4H56-bH = target: T10, 4H56-bH
T10 chain: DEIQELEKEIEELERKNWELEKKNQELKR

4H2931-bH = target: T11, 4H2931-bH
T11 chain: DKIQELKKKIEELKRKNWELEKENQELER

4H932-bH = target: T12, 4H932-bH
T12 chain: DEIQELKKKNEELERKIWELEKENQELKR

4H949-bH = target: T13, 4H949-bH
T13 chain: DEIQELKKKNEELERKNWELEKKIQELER

4H730-bH = target: T14, 4H730-bH
T14 chain: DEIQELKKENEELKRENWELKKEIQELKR

4H3381-bH = target: T15, 4H3381-bH
T15 chain: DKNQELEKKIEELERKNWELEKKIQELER

4H349-bH = target: T16, 4H349-bH
T16 chain: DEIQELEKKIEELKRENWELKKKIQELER

4H796-bH = target: T17, 4H796-bH
T17 chain: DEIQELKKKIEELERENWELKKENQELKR

4H3364-bH = target: T18, 4H3364-bH
T18 chain: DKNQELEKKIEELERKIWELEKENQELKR

O16-bN = target: T19, O16-bN
T19 chain: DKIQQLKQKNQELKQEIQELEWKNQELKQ

Binder	interaction score (P7bHq)	interaction score (P8bHq)	interaction score (P6bHq)	interaction score (P9bHq)	interaction score (P5bHq)	interaction score (4H3041-bH)	interaction score (4H491-bA)	interaction score (4H3297-bH)	interaction score (4H2859-bH)	interaction score (4H56-bH)	interaction score (4H2931-bH)	interaction score (4H932-bH)	interaction score (4H949-bH)	interaction score (4H730-bH)	interaction score (4H3381-bH)	interaction score (4H349-bH)	interaction score (4H796-bH)	interaction score (4H3364-bH)	interaction score (O16-bN)
B1	-0.58	0.944	0.519	-0.517	-1.33														
B2						1.2	1.08	0.299	1.11	0.547	-0.182	-0.5	-1.01	-0.682	0.199	-0.11	-0.548	1.02	
B3							-0.879												0.749
